# Measurements as given in patent publication US11472855, “RNA-binding protein” (Panitch Schwarze Belisario & Nadel LLP).
# Positions count from the first letter of the chain named.
# T1: hPUF_MT(R8_N12S, R3→R5, R4→R6) (R8 repeat N12S)
# T1 chain: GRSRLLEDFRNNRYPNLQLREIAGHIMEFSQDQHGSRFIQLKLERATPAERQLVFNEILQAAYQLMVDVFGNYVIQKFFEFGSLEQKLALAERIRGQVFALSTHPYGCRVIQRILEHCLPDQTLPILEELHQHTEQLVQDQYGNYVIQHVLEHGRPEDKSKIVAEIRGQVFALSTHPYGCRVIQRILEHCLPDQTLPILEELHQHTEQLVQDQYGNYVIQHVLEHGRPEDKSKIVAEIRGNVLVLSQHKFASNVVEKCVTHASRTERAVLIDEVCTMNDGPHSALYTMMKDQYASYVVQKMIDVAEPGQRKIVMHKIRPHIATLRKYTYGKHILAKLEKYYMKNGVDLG
# T2: hPUF_MT(R8_N12C, R3→R5, R4→R6) (R8 repeat N12C)
# T2 chain: T1 chain with S295C
# T3: hPUF_MT(R3→R5, R4→R6)
# T3 chain: T1 chain with S295N
# T4: hPUF_MT(R8→R5) (UniProt Q14671 SEQ:1-349)
# T4 chain: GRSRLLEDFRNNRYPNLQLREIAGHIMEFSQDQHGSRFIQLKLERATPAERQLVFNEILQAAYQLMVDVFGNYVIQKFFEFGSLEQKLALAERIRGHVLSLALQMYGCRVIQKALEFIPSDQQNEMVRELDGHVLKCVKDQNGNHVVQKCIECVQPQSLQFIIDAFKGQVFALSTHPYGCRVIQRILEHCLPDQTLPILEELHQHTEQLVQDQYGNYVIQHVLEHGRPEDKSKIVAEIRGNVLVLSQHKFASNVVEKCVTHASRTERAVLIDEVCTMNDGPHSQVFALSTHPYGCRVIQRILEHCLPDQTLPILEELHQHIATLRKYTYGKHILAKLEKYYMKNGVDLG
# T5: hPUF_MT(R1_Q16R, R3→R5, R4→R6) (R1 repeat Q16R)
# T5 chain: T1 chain with Q40R, S295N
# T6: hPUF_MT(1-2-5-5-6-5-6-7-8)
# T6 chain: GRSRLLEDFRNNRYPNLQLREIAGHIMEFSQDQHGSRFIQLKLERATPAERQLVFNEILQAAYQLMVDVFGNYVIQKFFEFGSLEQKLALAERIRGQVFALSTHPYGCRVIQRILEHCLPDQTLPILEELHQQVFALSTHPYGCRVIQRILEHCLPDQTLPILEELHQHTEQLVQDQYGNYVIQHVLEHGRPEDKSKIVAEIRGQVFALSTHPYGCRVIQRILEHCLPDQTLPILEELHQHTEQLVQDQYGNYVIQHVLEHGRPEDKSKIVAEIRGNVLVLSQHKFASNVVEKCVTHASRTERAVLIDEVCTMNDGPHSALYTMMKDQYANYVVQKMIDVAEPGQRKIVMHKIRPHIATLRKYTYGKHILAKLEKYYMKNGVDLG
# T7: hPUF_MT(R7_S12N,E16Q, R3→R5, R4→R6) (R7 repeat S12N,E16Q)
# T7 chain: T1 chain with S252N, E256Q, S295N
# T8: hPUF_MT(R7_S12C,E16Q, R3→R5, R4→R6) (R7 repeat S12C,E16Q)
# T8 chain: T1 chain with S252C, E256Q, S295N
# T9: hPUF_MT(R7_E16R, R3→R5, R4→R6) (R7 repeat E16R)
# T9 chain: T1 chain with E256R, S295N
# T10: hPUF_MT(R1_S12N, R3→R5, R4→R6) (R1 repeat S12N)
# T10 chain: T1 chain with S36N, S295N
# T11: hPUF_MT(1-2-5-6-5-6-6-7-8)
# T11 chain: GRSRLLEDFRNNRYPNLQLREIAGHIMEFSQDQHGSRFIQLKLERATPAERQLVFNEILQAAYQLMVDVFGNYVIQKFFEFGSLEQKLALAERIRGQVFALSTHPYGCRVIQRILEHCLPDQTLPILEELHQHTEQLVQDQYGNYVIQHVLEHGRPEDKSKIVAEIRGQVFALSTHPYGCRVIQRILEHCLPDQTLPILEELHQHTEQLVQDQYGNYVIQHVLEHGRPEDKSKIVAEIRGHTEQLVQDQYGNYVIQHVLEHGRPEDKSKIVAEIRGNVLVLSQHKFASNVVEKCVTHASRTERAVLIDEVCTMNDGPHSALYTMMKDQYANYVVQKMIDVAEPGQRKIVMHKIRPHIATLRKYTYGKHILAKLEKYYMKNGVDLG
# T12: hPUF_MT(R1_Q16E, R3→R5, R4→R6) (R1 repeat Q16E)
# T12 chain: T1 chain with Q40E, S295N
# T13: hPUF_MT(1-2-6-5-6-5-6-7-8)
# T13 chain: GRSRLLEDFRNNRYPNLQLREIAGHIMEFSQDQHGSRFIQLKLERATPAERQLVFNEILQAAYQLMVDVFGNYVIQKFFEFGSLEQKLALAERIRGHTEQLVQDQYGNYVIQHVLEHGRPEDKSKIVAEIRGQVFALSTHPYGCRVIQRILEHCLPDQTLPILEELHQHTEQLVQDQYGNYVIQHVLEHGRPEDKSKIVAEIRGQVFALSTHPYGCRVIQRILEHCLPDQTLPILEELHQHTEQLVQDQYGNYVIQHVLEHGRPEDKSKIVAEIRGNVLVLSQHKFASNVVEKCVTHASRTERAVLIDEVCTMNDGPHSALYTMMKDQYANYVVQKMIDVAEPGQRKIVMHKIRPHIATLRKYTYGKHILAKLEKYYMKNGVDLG
# B1: OTS-1825 (ssRNA)
# RNA: CCAGAAUAGUAUAUAUUCG
# B2: OTS-2021 (ssRNA)
# RNA: CCAGAAUUGUAUAUCUUCG
# B3: OTS-2081 (ssRNA)
# RNA: CCAGAAUUGUAUAAUAUUCG
# B4: OTS-2032 (ssRNA)
# RNA: CCAGAAUUUUAUAUAUUCG
# B5: OTS-2022 (ssRNA)
# RNA: CCAGAAUUGUAUAUUUUCG
# B6: OTS-2082 (ssRNA)
# RNA: CCAGAAUUGUUAUAUAUUCG
# B7: OTS-2020 (ssRNA)
# RNA: CCAGAAUUGUAUAUGUUCG
# B8: OTS-2080 (ssRNA)
# RNA: CCAGAAUUGUAUAUUAUUCG
# How the values were obtained:
# Conditions in all cases: label: Alexa680 at 5' and 3'
# [1] = molecular target: T1, hPUF_MT(R8_N12S, R3→R5, R4→R6); test: EMSA; no binding
# [2] = molecular target: T2, hPUF_MT(R8_N12C, R3→R5, R4→R6); test: EMSA; no binding
# hPUF_MT(R3→R5, R4→R6) [3] = molecular target: T3, hPUF_MT(R3→R5, R4→R6); test: EMSA; binds U exclusively at R8 position
# hPUF_MT(R8→R5) = molecular target: T4, hPUF_MT(R8→R5); test: EMSA; substantially no binding
# [4] = molecular target: T5, hPUF_MT(R1_Q16R, R3→R5, R4→R6); test: EMSA; C>U>>G>A; printed as Q16E (C recognition)
# hPUF_MT(R3→R5, R4→R6) [5] = molecular target: T3, hPUF_MT(R3→R5, R4→R6); test: EMSA; U=C>A>G at R1 position
# [6] = molecular target: T6, hPUF_MT(1-2-5-5-6-5-6-7-8); test: EMSA
# hPUF_MT(R3→R5, R4→R6) [7] = molecular target: T3, hPUF_MT(R3→R5, R4→R6); test: EMSA; binds G exclusively at R7 position
# [8] = molecular target: T7, hPUF_MT(R7_S12N,E16Q, R3→R5, R4→R6); test: EMSA; binds U exclusively
# [9] = molecular target: T8, hPUF_MT(R7_S12C,E16Q, R3→R5, R4→R6); test: EMSA; U>C
# [10] = molecular target: T9, hPUF_MT(R7_E16R, R3→R5, R4→R6); test: EMSA; binds C and U
# [11] = molecular target: T10, hPUF_MT(R1_S12N, R3→R5, R4→R6); test: EMSA; U>C>>G=A
# hPUF_MT(R3→R5, R4→R6) [12] = molecular target: T3, hPUF_MT(R3→R5, R4→R6); test: EMSA; U=C>A>G at R1 position; backbone printed as R4→R5
# [13] = molecular target: T11, hPUF_MT(1-2-5-6-5-6-6-7-8); test: EMSA
# [14] = molecular target: T12, hPUF_MT(R1_Q16E, R3→R5, R4→R6); test: EMSA; G>>U=C
# [15] = molecular target: T13, hPUF_MT(1-2-6-5-6-5-6-7-8); test: EMSA
binder,measurement,setting,value
B1,binding result,[1],no binding
same,binding result,[2],no binding
same,binding result,"hPUF_MT(R3→R5, R4→R6) [3]",no binding
same,binding result,hPUF_MT(R8→R5),no binding
B2,binding result,[4],binds
same,binding result,"hPUF_MT(R3→R5, R4→R6) [5]",binds
B3,binding signal,[6],~3 fold of WT
B4,binding result,"hPUF_MT(R3→R5, R4→R6) [7]",no binding
same,binding result,[8],binds
same,binding result,[9],binds
same,binding result,[10],binds
B5,binding result,[11],binds
same,binding result,"hPUF_MT(R3→R5, R4→R6) [12]",binds
B6,binding signal,[13],~3 fold of WT
B7,binding result,[14],binds
B8,binding signal,[15],~3 fold of WT
